Numbered stars: 1 amine (or outer) side, 2 acyl side, 3 side chain; on linkers, the order of the positions; unused ones are H or OH. Bridge positions count the residues as written; N and C are the ends. Side chains are listed from the residue outwards. Ends that are not written are not given here. * marks the point of attachment. C20 diacid = O=C(O)CCCCCCCCCCCCCCCCCCC(=O)*; γGlu = O=C(O)[C@H](CCC(=O)[*:2])N[*:1]

Test [1] deals with T1, human calcitonin receptor (human, UniProt P30988 25-474).
T1 construct: whole, on cells; also called hCTR; hCT
T1 sequence (looked up): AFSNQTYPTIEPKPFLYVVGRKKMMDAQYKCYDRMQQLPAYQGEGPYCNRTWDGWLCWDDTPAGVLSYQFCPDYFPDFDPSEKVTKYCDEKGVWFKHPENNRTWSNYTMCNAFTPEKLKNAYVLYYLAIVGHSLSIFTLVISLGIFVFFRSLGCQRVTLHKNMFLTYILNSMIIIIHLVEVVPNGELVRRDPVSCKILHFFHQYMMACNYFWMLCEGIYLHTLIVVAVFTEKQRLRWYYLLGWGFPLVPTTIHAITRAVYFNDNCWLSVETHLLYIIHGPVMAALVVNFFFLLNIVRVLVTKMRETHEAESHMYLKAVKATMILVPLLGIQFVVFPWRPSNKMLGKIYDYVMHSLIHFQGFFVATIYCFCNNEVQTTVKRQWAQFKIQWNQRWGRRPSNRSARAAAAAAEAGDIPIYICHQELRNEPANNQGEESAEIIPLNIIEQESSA
Description: SPA competition binding, membranes with human calcitonin receptor, displacement of 125I-calcitonin (Assay VII). The gist of the method: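 BHK hCTR membranes 35 ng/μL + SPA beads 0.05 mg/well; buffer 50 mM Hepes pH 7.4, 1 mM CaCl2, 5 mM MgCl₂, 0.1% OA, 0.02% Tween20. 120 min, 25° C., shaking. Scintillation count; IC50 by one-site binding competition.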

For test [2], the target named is T1, human calcitonin receptor. The experiment in a line: ratio of IC50 at hCTR to IC50 at the human amylin receptor (reference). Summed up: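 Scintillation proximity competition binding on cell membranes at 35 ng/μL with SPA beads, in 50 mM Hepes pH 7.4, 1 mM CaCl2, 5 mM MgCl₂, 0.1% OA, 0.02% Tween20. Incubated 120 min at 25° C with shaking. IC₅₀ from one-site competition fit.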

B1: N^ε1-[(4S)-4-carboxy-4-(19-carboxynonadecanoylamino)butanoyl]-[Arg17,Pro21,Pro27,Glu35]-h-amylin (peptide)
peptide: K([γGlu-C20 diacid])CNTATCATQRLANFLRHSSPNFGAIPSSTNVGSETY-NH2
modifications: disulfide 2-7; N-terminus assumed
SMILES: CC[C@H](C)[C@H](NC(=O)[C@H](C)NC(=O)CNC(=O)[C@H](Cc1ccccc1)NC(=O)[C@H](CC(N)=O)NC(=O)[C@@H]1CCCN1C(=O)[C@H](CO)NC(=O)[C@H](CO)NC(=O)[C@H](Cc1c[nH]cn1)NC(=O)[C@H](CCCNC(=N)N)NC(=O)[C@H](CC(C)C)NC(=O)[C@H](Cc1ccccc1)NC(=O)[C@H](CC(N)=O)NC(=O)[C@H](C)NC(=O)[C@H](CC(C)C)NC(=O)[C@H](CCCNC(=N)N)NC(=O)[C@H](CCC(N)=O)NC(=O)[C@@H](NC(=O)[C@H](C)NC(=O)[C@@H]1CSSC[C@H](NC(=O)[C@@H](N)CCCCNC(=O)CC[C@H](NC(=O)CCCCCCCCCCCCCCCCCCC(=O)O)C(=O)O)C(=O)N[C@@H](CC(N)=O)C(=O)N[C@@H]([C@@H](C)O)C(=O)N[C@@H](C)C(=O)N[C@@H]([C@@H](C)O)C(=O)N1)[C@@H](C)O)C(=O)N1CCC[C@H]1C(=O)N[C@@H](CO)C(=O)N[C@@H](CO)C(=O)N[C@H](C(=O)N[C@@H](CC(N)=O)C(=O)N[C@H](C(=O)NCC(=O)N[C@@H](CO)C(=O)N[C@@H](CCC(=O)O)C(=O)N[C@H](C(=O)N[C@@H](Cc1ccc(O)cc1)C(N)=O)[C@@H](C)O)C(C)C)[C@@H](C)O
notes: also called compound 27
Take B1: the half-maximal inhibitory concentration (IC50) (usually the midpoint of a concentration-inhibition curve) in test [1] is 34.5 nM. In test [2], the “Ratio hCT/hAmylin binding” value was found to be 41.3.

B2: N^ε1-[(4S)-4-carboxy-4-[[(4S)-4-carboxy-4-(19-carboxynonadecanoylamino)butanoyl]amino]butanoyl]-[Asp14,Arg17,Pro22,Pro26,Asp35]-h-amylin (peptide)
peptide: K([γGlu-γGlu-C20 diacid])CNTATCATQRLADFLRHSSNPFGAPLSSTNVGSDTY-NH2
modifications: disulfide 2-7; N-terminus assumed
SMILES: CC(C)C[C@H](NC(=O)[C@H](CCCNC(=N)N)NC(=O)[C@H](CCC(N)=O)NC(=O)[C@@H](NC(=O)[C@H](C)NC(=O)[C@@H]1CSSC[C@H](NC(=O)[C@@H](N)CCCCNC(=O)CC[C@H](NC(=O)CC[C@H](NC(=O)CCCCCCCCCCCCCCCCCCC(=O)O)C(=O)O)C(=O)O)C(=O)N[C@@H](CC(N)=O)C(=O)N[C@@H]([C@@H](C)O)C(=O)N[C@@H](C)C(=O)N[C@@H]([C@@H](C)O)C(=O)N1)[C@@H](C)O)C(=O)N[C@@H](C)C(=O)N[C@@H](CC(=O)O)C(=O)N[C@@H](Cc1ccccc1)C(=O)N[C@@H](CC(C)C)C(=O)N[C@@H](CCCNC(=N)N)C(=O)N[C@@H](Cc1c[nH]cn1)C(=O)N[C@@H](CO)C(=O)N[C@@H](CO)C(=O)N[C@@H](CC(N)=O)C(=O)N1CCC[C@H]1C(=O)N[C@@H](Cc1ccccc1)C(=O)NCC(=O)N[C@@H](C)C(=O)N1CCC[C@H]1C(=O)N[C@@H](CC(C)C)C(=O)N[C@@H](CO)C(=O)N[C@@H](CO)C(=O)N[C@H](C(=O)N[C@@H](CC(N)=O)C(=O)N[C@H](C(=O)NCC(=O)N[C@@H](CO)C(=O)N[C@@H](CC(=O)O)C(=O)N[C@H](C(=O)N[C@@H](Cc1ccc(O)cc1)C(N)=O)[C@@H](C)O)C(C)C)[C@@H](C)O
notes: also called compound 3
B2: the half-maximal inhibitory concentration (IC50) in test [1] came out at 19.5 nM. Further, in test [2], the “Ratio hCT/hAmylin binding” value came to 17.3.

B3: N^ε1-[(4S)-4-carboxy-4-[[(4S)-4-carboxy-4-(19-carboxynonadecanoylamino)butanoyl]amino]butanoyl]-[Glu14,Arg17,Pro21,Pro27,Pro37]-h-amylin (peptide)
peptide: K([γGlu-γGlu-C20 diacid])CNTATCATQRLAEFLRHSSPNFGAIPSSTNVGSNTP-NH2
modifications: disulfide 2-7 (inferred)
notes: also called compound 13
Turning to B3, in test [1], the IC50 amounted to 0.305 nM. The “Ratio hCT/hAmylin binding” value in test [2] is 1.2.

B4: N^ε1-[(4S)-4-carboxy-4-(19-carboxynonadecanoylamino)butanoyl]-[Arg17,Pro21,Pro27,Lys35]-h-amylin (peptide)
peptide: K([γGlu-C20 diacid])CNTATCATQRLANFLRHSSPNFGAIPSSTNVGSKTY-NH2
modifications: disulfide 2-7; N-terminus assumed
SMILES: CC[C@H](C)[C@H](NC(=O)[C@H](C)NC(=O)CNC(=O)[C@H](Cc1ccccc1)NC(=O)[C@H](CC(N)=O)NC(=O)[C@@H]1CCCN1C(=O)[C@H](CO)NC(=O)[C@H](CO)NC(=O)[C@H](Cc1c[nH]cn1)NC(=O)[C@H](CCCNC(=N)N)NC(=O)[C@H](CC(C)C)NC(=O)[C@H](Cc1ccccc1)NC(=O)[C@H](CC(N)=O)NC(=O)[C@H](C)NC(=O)[C@H](CC(C)C)NC(=O)[C@H](CCCNC(=N)N)NC(=O)[C@H](CCC(N)=O)NC(=O)[C@@H](NC(=O)[C@H](C)NC(=O)[C@@H]1CSSC[C@H](NC(=O)[C@@H](N)CCCCNC(=O)CC[C@H](NC(=O)CCCCCCCCCCCCCCCCCCC(=O)O)C(=O)O)C(=O)N[C@@H](CC(N)=O)C(=O)N[C@@H]([C@@H](C)O)C(=O)N[C@@H](C)C(=O)N[C@@H]([C@@H](C)O)C(=O)N1)[C@@H](C)O)C(=O)N1CCC[C@H]1C(=O)N[C@@H](CO)C(=O)N[C@@H](CO)C(=O)N[C@H](C(=O)N[C@@H](CC(N)=O)C(=O)N[C@H](C(=O)NCC(=O)N[C@@H](CO)C(=O)N[C@@H](CCCCN)C(=O)N[C@H](C(=O)N[C@@H](Cc1ccc(O)cc1)C(N)=O)[C@@H](C)O)C(C)C)[C@@H](C)O
notes: also called compound 35
B4: the 50% inhibitory concentration (IC50) in test [1] stood at 48.8 nM. The “Ratio hCT/hAmylin binding” value in test [2] was 50.3.

B5: N^ε1-[(4S)-4-carboxy-4-(19-carboxynonadecanoylamino)butanoyl]-[Arg17,Pro21,Pro27]-h-amylin (peptide)
peptide: K([γGlu-C20 diacid])CNTATCATQRLANFLRHSSPNFGAIPSSTNVGSNTY-NH2
modifications: disulfide 2-7; N-terminus assumed
SMILES: CC[C@H](C)[C@H](NC(=O)[C@H](C)NC(=O)CNC(=O)[C@H](Cc1ccccc1)NC(=O)[C@H](CC(N)=O)NC(=O)[C@@H]1CCCN1C(=O)[C@H](CO)NC(=O)[C@H](CO)NC(=O)[C@H](Cc1c[nH]cn1)NC(=O)[C@H](CCCNC(=N)N)NC(=O)[C@H](CC(C)C)NC(=O)[C@H](Cc1ccccc1)NC(=O)[C@H](CC(N)=O)NC(=O)[C@H](C)NC(=O)[C@H](CC(C)C)NC(=O)[C@H](CCCNC(=N)N)NC(=O)[C@H](CCC(N)=O)NC(=O)[C@@H](NC(=O)[C@H](C)NC(=O)[C@@H]1CSSC[C@H](NC(=O)[C@@H](N)CCCCNC(=O)CC[C@H](NC(=O)CCCCCCCCCCCCCCCCCCC(=O)O)C(=O)O)C(=O)N[C@@H](CC(N)=O)C(=O)N[C@@H]([C@@H](C)O)C(=O)N[C@@H](C)C(=O)N[C@@H]([C@@H](C)O)C(=O)N1)[C@@H](C)O)C(=O)N1CCC[C@H]1C(=O)N[C@@H](CO)C(=O)N[C@@H](CO)C(=O)N[C@H](C(=O)N[C@@H](CC(N)=O)C(=O)N[C@H](C(=O)NCC(=O)N[C@@H](CO)C(=O)N[C@@H](CC(N)=O)C(=O)N[C@H](C(=O)N[C@@H](Cc1ccc(O)cc1)C(N)=O)[C@@H](C)O)C(C)C)[C@@H](C)O
notes: also called compound 48
As to B5, the concentration for half-maximal inhibition (IC50) in test [1] worked out at 30.9 nM. In test [2], the “Ratio hCT/hAmylin binding” value came to 69.7.

B6: N^ε1-[(4S)-4-carboxy-4-[[(4S)-4-carboxy-4-(19-carboxynonadecanoylamino)butanoyl]amino]butanoyl]-[Asp14,Arg17,Pro21,Pro26,Asp35]-h-amylin (peptide)
peptide: K([γGlu-γGlu-C20 diacid])CNTATCATQRLADFLRHSSPNFGAPLSSTNVGSDTY-NH2
modifications: disulfide 2-7; N-terminus assumed
SMILES: CC(C)C[C@H](NC(=O)[C@H](CCCNC(=N)N)NC(=O)[C@H](CCC(N)=O)NC(=O)[C@@H](NC(=O)[C@H](C)NC(=O)[C@@H]1CSSC[C@H](NC(=O)[C@@H](N)CCCCNC(=O)CC[C@H](NC(=O)CC[C@H](NC(=O)CCCCCCCCCCCCCCCCCCC(=O)O)C(=O)O)C(=O)O)C(=O)N[C@@H](CC(N)=O)C(=O)N[C@@H]([C@@H](C)O)C(=O)N[C@@H](C)C(=O)N[C@@H]([C@@H](C)O)C(=O)N1)[C@@H](C)O)C(=O)N[C@@H](C)C(=O)N[C@@H](CC(=O)O)C(=O)N[C@@H](Cc1ccccc1)C(=O)N[C@@H](CC(C)C)C(=O)N[C@@H](CCCNC(=N)N)C(=O)N[C@@H](Cc1c[nH]cn1)C(=O)N[C@@H](CO)C(=O)N[C@@H](CO)C(=O)N1CCC[C@H]1C(=O)N[C@@H](CC(N)=O)C(=O)N[C@@H](Cc1ccccc1)C(=O)NCC(=O)N[C@@H](C)C(=O)N1CCC[C@H]1C(=O)N[C@@H](CC(C)C)C(=O)N[C@@H](CO)C(=O)N[C@@H](CO)C(=O)N[C@H](C(=O)N[C@@H](CC(N)=O)C(=O)N[C@H](C(=O)NCC(=O)N[C@@H](CO)C(=O)N[C@@H](CC(=O)O)C(=O)N[C@H](C(=O)N[C@@H](Cc1ccc(O)cc1)C(N)=O)[C@@H](C)O)C(C)C)[C@@H](C)O
notes: also called compound 1
As for B6, in test [1], the IC50 worked out at 32.5 nM. The “Ratio hCT/hAmylin binding” value in test [2] was 27.6.

Source of the values: patent publication US20140087995A1 (published 2014).
